Test [1] addresses alpha-synuclein oligomers (UniProt P37840). The test is described as follows: ELISA (Example 3), reference antibody 26F1.
The target is the same in test [2]. Description: ELISA, alpha-Syn oligomer coated plate, exp 1.
Test [3] has the same target. The test is described as follows: ELISA, alpha-Syn oligomer coated plate, exp 2.
Test [4] has the same target. The test is described as follows: ELISA, alpha-Syn oligomer coated plate, exp 3.
For test [5] the target is unchanged. Description: ELISA, ratio of EC50 values, reference alpha-Syn fibrils (FIG. 3).
Test [6] has as its target alpha-synuclein fibrils (UniProt P37840). Description: ELISA on antigen-coated plate, antibody titrated in tenfold steps, OD 450-630 nm.
Test [7] has as its target alpha-synuclein monomers (UniProt P37840). Described as above.
The target of test [8] is alpha-synuclein oligomers (UniProt P37840). The test is described as above.

The substance 5G4 antibody registered a fold weaker binding affinity to alpha-Syn oligomers than 26F1 in test [1] greater than 2 fold. The EC50 in test [2] came to 0.2 nM; in test [3], 0.6 nM; in test [4], 0.6 nM.

MJFR14 antibody: the EC50 in test [2] was found to be 0.06 nM; in test [3], 0.06 nM; in test [4] it was 0.14 nM. Further, the binding affinity ratio alpha-Syn oligomers:alpha-Syn fibrils in test [5] was 1. Further, the EC50 (read off the curve) in test [6], in test [7] and in test [8] was 0.02 nM in each case.

Values taken from patent US20230151089A1.
